{"source": "paper PMC5680779", "molecular_target": "HIV-1 Integrase (IN) from NL4-3, Flag-tagged (HIV-1 NL4-3)", "experiment": "AlphaScreen or HTRF; HTRF-based IN-IN multimerization assay with Flag-tagged and His-tagged IN from NL4-3; with the small molecule MUT-A, signal compared to the IN-IN signal without MUT-A"}
{"substance": "HIV-1 Integrase (IN) from NL4-3, Flag-tagged (enzyme)", "values": [{"measurement": "maximum multimerization signal plateau with MUT-A (percent of the IN-IN signal without MUT-A)", "result": 600, "unit": "%"}]}
